Laboratory results: patent US20240301052A1 (LANOVA MEDICINES DEVELOPMENT, published 2024)
Read-outs that look alike come from different tables or passages of the source. One block for each binder: values may come before it.

Tests used:
[1] = target: T1, human SLC34A2 (human, UniProt O95436 1-690); test: FACS, OVCAR3 cells
T1 construct: whole, on cells; also called human solute carrier 34 A2; NaPi2b
T1 sequence (looked up): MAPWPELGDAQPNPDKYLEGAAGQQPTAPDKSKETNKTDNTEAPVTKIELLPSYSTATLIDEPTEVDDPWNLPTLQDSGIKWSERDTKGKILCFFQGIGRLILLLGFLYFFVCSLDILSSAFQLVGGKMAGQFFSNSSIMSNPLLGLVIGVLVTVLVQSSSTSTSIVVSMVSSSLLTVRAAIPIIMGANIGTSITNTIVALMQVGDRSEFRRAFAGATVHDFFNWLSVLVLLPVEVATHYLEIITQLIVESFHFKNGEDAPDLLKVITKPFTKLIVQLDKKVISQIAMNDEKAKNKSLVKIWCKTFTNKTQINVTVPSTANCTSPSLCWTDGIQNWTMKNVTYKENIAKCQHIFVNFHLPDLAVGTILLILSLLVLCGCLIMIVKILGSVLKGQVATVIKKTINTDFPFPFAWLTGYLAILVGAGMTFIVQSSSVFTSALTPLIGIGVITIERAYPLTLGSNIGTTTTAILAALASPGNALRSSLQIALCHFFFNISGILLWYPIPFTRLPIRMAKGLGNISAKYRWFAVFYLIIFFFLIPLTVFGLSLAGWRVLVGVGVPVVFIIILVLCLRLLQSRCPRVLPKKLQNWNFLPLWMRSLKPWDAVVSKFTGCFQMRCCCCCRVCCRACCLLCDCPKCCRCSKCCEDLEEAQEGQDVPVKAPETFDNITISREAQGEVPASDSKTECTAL

[2] = target: T2, rat SLC34A2 (rat, UniProt Q9JJ09 1-695); test: FACS, HEK293/Rat SLC34A2 cells
T2 construct: whole, on cells
T2 sequence (looked up): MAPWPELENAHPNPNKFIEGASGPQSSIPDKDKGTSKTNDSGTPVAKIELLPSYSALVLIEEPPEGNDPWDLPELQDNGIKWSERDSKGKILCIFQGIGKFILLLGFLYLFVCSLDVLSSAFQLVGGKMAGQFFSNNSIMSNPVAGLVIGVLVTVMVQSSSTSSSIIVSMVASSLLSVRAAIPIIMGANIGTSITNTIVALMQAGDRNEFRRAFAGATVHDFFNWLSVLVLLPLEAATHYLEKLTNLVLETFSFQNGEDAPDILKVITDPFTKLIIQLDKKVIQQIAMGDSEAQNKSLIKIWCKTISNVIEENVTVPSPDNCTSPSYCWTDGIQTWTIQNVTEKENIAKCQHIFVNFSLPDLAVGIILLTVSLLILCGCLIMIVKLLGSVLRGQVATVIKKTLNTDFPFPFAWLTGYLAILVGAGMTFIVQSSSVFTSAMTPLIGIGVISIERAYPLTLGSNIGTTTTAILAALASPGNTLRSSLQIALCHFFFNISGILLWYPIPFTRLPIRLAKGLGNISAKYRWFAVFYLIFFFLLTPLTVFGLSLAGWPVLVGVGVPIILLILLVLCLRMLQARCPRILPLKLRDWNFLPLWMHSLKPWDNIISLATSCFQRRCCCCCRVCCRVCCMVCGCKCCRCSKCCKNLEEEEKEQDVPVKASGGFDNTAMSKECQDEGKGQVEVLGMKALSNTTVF

[3] = target: T1, human SLC34A2; test: FACS, OVCAR3 cells; remark: listed apart in the source
[4] = target: T1, human SLC34A2; test: FACS, OVCAR3 cells
[5] = target: T1, human SLC34A2; test: FACS, OVCAR3 cells; remark: listed apart in the source
[6] = target: T1, human SLC34A2; test: cell-based or functional assay
[7] = target: T3, Rhesus SLC34A2 (Rhesus, UniProt F7HDA3 1-690); test: FACS, HEK293/Rhesus SLC34A2 cells
T3 construct: whole, on cells
T3 sequence: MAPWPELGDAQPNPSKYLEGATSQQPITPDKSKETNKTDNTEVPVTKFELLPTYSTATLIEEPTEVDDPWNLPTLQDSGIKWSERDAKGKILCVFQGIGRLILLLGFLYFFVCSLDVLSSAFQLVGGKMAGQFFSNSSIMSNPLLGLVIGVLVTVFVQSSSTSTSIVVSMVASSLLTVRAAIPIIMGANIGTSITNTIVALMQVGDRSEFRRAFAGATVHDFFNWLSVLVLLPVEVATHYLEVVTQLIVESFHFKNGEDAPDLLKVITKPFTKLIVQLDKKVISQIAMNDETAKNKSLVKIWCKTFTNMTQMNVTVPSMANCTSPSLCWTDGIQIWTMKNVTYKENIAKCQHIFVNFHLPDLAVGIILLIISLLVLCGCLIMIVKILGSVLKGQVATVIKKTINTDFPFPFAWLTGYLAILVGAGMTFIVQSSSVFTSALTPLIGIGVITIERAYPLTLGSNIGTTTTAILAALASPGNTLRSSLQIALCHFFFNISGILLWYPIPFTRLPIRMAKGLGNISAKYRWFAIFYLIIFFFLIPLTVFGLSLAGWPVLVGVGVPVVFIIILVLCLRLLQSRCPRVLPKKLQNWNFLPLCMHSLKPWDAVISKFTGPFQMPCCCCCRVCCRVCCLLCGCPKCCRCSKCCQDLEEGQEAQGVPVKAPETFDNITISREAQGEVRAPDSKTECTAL

[8] = target: Cynomolgus SLC34A2 (Cynomolgus); test: FACS, cells expressing Cynomolgus SLC34A2
[9] = target: T1, human SLC34A2; test: FACS, HEK293/human SLC34A2 cells
[10] = target: T1, human SLC34A2; test: FACS, RMG-1 cells
[11] = target: T3, Rhesus SLC34A2; test: FACS, HEK293/Rhesus SLC34A2 cells; remark: listed apart in the source
[12] = target: T1, human SLC34A2; test: FACS, HEK293/human SLC34A2 cells; remark: listed apart in the source

B1: 63A11D5B4.p1.z9 hIgG1 (antibody, V domains shown)
VH: QVQLVQSGAEVVKPGASVKMSCKTSGYTFITYNMHWVRQAPGQGLEWIGAIYPGSGDTSYNQKFKGRVTLTADKSTSTAYMELSSLRSEDTAVYYCSISTIITTGAVDYWGQGTLVTVSS
VL: DIQMTQSPSSLSASVGDRVTITCKASQDVGTAVAWYQQKPGKVPKLLIYWTSTRHTGVPSRFSGSGSGTDFTLTISSLQPEDVATYYCQQYSRIPLTFGGGTKVEIK
notes: humanized hIgG1
EC50 [1]: 9.12 nM | Top (MFI) [1]: 26500 MFI | EC50 [2]: 3.04 nM

B4: 62G10E4G8.p3.z15 hIgG1 (antibody, V domains shown)
VH: QVQLVQSGAEVVKPGASVKMSCKASGYTFPSYITHWVKQAPGQGLEWIGAIYPGNADTSYIQKFKGRATLTADKSTSTAYMELSSLRSEDTAVYYCARGTYGTSAWFTYWGQGTLVTVSS
VL: EIVLTQSPATLSVSPGERATLSCRARQNIGNNLYWYQQKPGQSPRLLIKYASQSISGIPSRFSGSGSGTDFTLTISSLQSEDFAVYFCQQSFSWPLTFGQGTKLEIK
notes: humanized hIgG1
EC50 [2]: 4.04 nM

B5: 30H9B8F9.p1.z5 hIgG1 (antibody, V domains shown)
VH: QVQLVQSGAEVKKPGASVKVSCKTSGYTFTTNNMHWVRQAPGQGLEWIGAIYPGSGATAYNQKFKGRVTMTADTSTSTVYMELSSLRSEDTAVYYCARGMYGHGAMDYWGQGTLVTVSS
VL: DIQLTQSPSFLSASVGDRVTITCKASQDVGTAVAWYQQKPGKAPKLLIYWATTRHSGVPSRFSGSGSGTEFTLTISSLQPEDFATYYCQQYSSNPLTFGQGTKLEIK
notes: humanized hIgG1
EC50 [2]: 1.81 nM

More lines, main results first:

EC50 [1]: 10.5 nM | Top (MFI) [1]: 32100 MFI
B2: xi63A11D5B4 hIgG1 (antibody, V domains shown)
VH: QVQLQQPGAELVKPGASVKMSCRTSGYTFITYNMHWVKQTPGQGREWIGAIYPGNGDTSYNQKFKGKATLTADKSSSTAYMQLNSLTSEDSAVYYCSISTIITTGAVDYWGQGTSVTVAS
VL: DIVMTQSHKFMSTSVGDRVSITCKASQDVGTAVAWYQQKAGQSPKLLIYWTSTRHTGVPDRFTGSGSGTDFTLIIRSLQSEDLADYFCQQYSRIPLTFGSGTKLEIK
notes: chimeric, hIgG1

EC50 [2]: 2.62 nM | EC50 [3]: 1.67 nM | Top (MFI) [3]: 37400 MFI
B3: 91C9F1.p1.z7 hIgG1 (antibody, V domains shown)
VH: QVQLVQSGAEVKKPGSSVKVSCKTSGFFFTEYIIHWVRQAPGQGLEWIGGIIPNNDVTNYKQNFRGRVTLTADKSTSTAYMELSSLRSEDTAVYYCARWRNAYYSAMDSWGQGTTVTVSS
VL: DIQVTQSPSSLSTSVGDRVTITCTASQDVGTAVAWYQQKPGKSPKLLIYWASTRHTGVPERFTGSGSGTDFTLTISSVQPEDVATYFCQQYRTSPLTFGVGTKVEIK
notes: humanized hIgG1

EC50 [4]: 10.3 nM | Top [4]: 22500 MFI | EC50 [5]: 6.87 nM | Top (MFI) [5]: 29000 MFI | ADCC reporter EC50 [6]: 0.76 nM | ADCC reporter Top (MFI) [6]: 127000 MFI | ADCC-HEK293 [6]: 0.76 nM | ADCC-OVCAR3 [6]: 0.25 nM | EC50 [7]: 5.8 nM | Top (MFI) [7]: 27000 MFI | EC50 [8]: 3.72 nM | EC50 [9]: 2.68 nM | Top [9]: 32400 MFI | EC50 [10]: 7.2 nM | EC50 [11]: 2.54 nM | Top (MFI) [11]: 11900 MFI | EC50 [12]: 4.05 nM | Top [12]: 34700 MFI
B6: XMT-1536 (antibody, INN chains, looked up, V domains shown)
VH: QVQLVQSGAEVVKPGASVKMSCKASGYTFTGYNIHWVKQAPGQGLEWIGAIYPGNGDTSYKQKFRGRATLTADTSTSTVYMELSSLRSEDSAVYYCARGETARATFAYWGQGTLVTVSS
VL: DIQMTQSPSSLSASVGDRVTITCSASQDIGNFLNWYQQKPGKTVKVLIYYTSSLYSGVPSRFSGSGSGTDYTLTISSLQPEDFATYYCQQYSKLPLTFGQGTKLELK
modifications: rilsodotin auristatin payload
Cytotoxic Effect - MDAH-2774 [6]: 0.28 nM | Cytotoxic Effect - OVCAR3 [6]: 0.029 nM | cytotoxicity EC50 [6]: 0.72 nM | cytotoxicity Inhibition % [6]: 100%

EC50 [3]: 1.77 nM | Top (MFI) [3]: 32100 MFI
B7: xi91C9F1 hIgG1 (antibody, V domains shown)
VH: EVQLQQSGPELVKPGTSVKISCKTSGFFFTEYIIHWVKQSHGRSLEWIGGIIPNNGVTNYKQNFRGKAALTADKSSNTAYMELRSLTSEDSAVYYCARWRNGYYSAMDSWGQGTSVTVSS
VL: DIVVTQSHKFMSTSLGDRVSITCTASQDVGTAVAWYQQKPGHSPKLLIYWASTRHTGVPERFTGSGSGTDFTLTITNVQSEDLADYFCQQYRTSPLTFGVGTKLELK
notes: chimeric, hIgG1
